The results in this text go back to patent US20190248848A1 (published 2019).

Experiment [1] has as its target T1, biotinylated histone H3 peptide trimethylated at lysine 27, H3K27me3 (21-44) (UniProt P68431 22-45, trimethyl-lysine at K27; biotinylated). Put plainly: peptide microspot array; apparent Kd; 50 uM H3K27me3; replicate 1.
The target in experiment [2] is T1, biotinylated histone H3 peptide …. Put plainly: peptide microspot array; apparent Kd; 10 uM H3K27me3; replicate 2.
Experiment [3] has the same target. Put plainly: peptide microspot array; apparent Kd; 10 uM H3K27me3; replicate 1.
Experiment [4] has the same target. The experiment is described as follows: peptide microspot array; apparent Kd; 20 uM H3K27me3; replicate 2.
For experiment [5] the target is unchanged. Put plainly: peptide microspot array; apparent Kd; 20 uM H3K27me3; replicate 3.
For experiment [6] the target is unchanged. The experiment is described as follows: peptide microspot array; apparent Kd; 10 uM H3K27me3; replicate 3.
Experiment [7] has the same target. Put plainly: peptide microspot array; apparent Kd; 50 uM H3K27me3; replicate 2.

B1: PcTF, monovalent Polycomb-based transcription factor (pET28 construct, purified from E. coli) (designed binder)
chain: MELSAVGERVFAAEALLKRRIRKGRMEYLVKWKGWSQKYSTWEPEENILDARLLAAFEERER
Regarding B1, the Kd in experiment [1] came out at 3.5 µM; in experiment [2], 1.55 µM; in experiment [3], 1.54 µM; in experiment [4], 5.66 µM; in experiment [5] it was 6.45 µM; in experiment [6] it was 7.6 µM. Further, in experiment [7], the Kd was found to be 7.73 µM.
